Laboratory results reported in patent US20190062438A1 (CSL, published 2019).

Experiments:
Assay in all cases: SPR, kinetics, Fab over captured mutant
shCD131 R364A = molecular target: T1, shCD131 R364A (human, UniProt P32927 17-438)
T1 construct: C-terminal 6xHis
T1 sequence: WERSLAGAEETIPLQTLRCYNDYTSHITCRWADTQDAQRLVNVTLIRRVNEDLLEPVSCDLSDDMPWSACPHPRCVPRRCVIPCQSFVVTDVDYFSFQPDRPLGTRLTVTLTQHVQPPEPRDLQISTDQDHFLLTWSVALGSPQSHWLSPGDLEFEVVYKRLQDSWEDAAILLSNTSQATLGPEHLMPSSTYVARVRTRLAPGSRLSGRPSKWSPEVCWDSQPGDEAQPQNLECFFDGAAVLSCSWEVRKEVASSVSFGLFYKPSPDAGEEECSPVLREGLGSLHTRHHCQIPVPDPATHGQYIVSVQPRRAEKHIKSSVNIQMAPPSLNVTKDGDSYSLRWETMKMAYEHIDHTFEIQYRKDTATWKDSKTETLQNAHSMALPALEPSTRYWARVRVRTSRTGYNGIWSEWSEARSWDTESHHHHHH
Protocol: (§1) As shβc is a dimer, kinetics assays were performed with shβc captured on the sensor surface, and purified Fab injected as the analyte. Avidity effects were avoided by the use of Fab rather than whole IgG.
(§2) shCD131 was captured on spots 1 and 5 of each flow cell for 2 minutes at a concentration of 0.4 μg/ml. […] For some analysis purified Fab was injected over each flow cell for 3 minutes and dissociation was monitored for a further 10 minutes. Regeneration of the surface was performed after each cycle with a 40 second injection of 25 mM glycine, pH 2.0. The analysis was performed with Fabs at several concentrations between 100 and 0.31 nM, with each concentration analyzed twice and in random order. The analysis was performed at a flow rate of 30 μl/min in HBS-EP buffer (10 mM Hepes, 150 mM NaCl, 3 mM EDTA, 0.005% Tween 20, pH 7.4) at 37° C. Responses from spots 2 and 4 of each flow cell, (in which shβc was not captured, but otherwise treated identically), were subtracted from those of spots 1 and 5 respectively to produce reference subtracted data. Reference subtracted responses from a blank injection comprising buffer alone were subtracted from the resultant sensorgrams to produce double referenced data suitable for kinetic analysis. Double-referenced sensorgrams were fitted using non-linear regression to a model describing 1:1 kinetics, including a term for mass transport limitation. The Rₘₐₓ value was fitted locally to account for slight deviations in the level of sCD131 captured, with association rate (kₐ), dissociation rate (kd) and equilibrium dissociation constant (KD) fitted globally.
(§3) Mapping of the shCD131 epitope was performed by measurement of the affinity of Fabs for various alanine point mutants of shCD131 essentially as described above, with the following exceptions. Each shCD131 mutant was captured for 120 seconds at concentrations between 1 and 5 μg/ml. For kinetic analysis, purified recombinant Fabs were injected for 2 minutes, and dissociation was monitored for a further 2 minutes. […] Fab concentrations ranged from 16 μM to 3.9 nM in two-fold dilutions.

shCD131 H42A = molecular target: T2, shCD131 H42A (human, UniProt P32927 17-438)
T2 construct: C-terminal 6xHis
T2 sequence: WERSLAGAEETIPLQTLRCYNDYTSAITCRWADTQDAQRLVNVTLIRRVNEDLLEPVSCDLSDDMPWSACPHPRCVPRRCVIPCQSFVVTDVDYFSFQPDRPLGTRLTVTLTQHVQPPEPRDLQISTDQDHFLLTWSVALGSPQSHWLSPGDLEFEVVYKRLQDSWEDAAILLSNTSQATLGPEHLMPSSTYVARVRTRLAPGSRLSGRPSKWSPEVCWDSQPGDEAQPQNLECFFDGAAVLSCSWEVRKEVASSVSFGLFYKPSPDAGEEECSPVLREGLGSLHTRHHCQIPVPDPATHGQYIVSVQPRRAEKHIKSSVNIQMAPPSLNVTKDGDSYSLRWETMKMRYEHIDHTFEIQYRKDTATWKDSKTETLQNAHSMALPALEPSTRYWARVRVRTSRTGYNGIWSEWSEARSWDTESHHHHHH
Protocol: as §1, §2, §3

shCD131 N422A = molecular target: T3, shCD131 N422A (human, UniProt P32927 17-438)
T3 construct: C-terminal 6xHis
T3 sequence: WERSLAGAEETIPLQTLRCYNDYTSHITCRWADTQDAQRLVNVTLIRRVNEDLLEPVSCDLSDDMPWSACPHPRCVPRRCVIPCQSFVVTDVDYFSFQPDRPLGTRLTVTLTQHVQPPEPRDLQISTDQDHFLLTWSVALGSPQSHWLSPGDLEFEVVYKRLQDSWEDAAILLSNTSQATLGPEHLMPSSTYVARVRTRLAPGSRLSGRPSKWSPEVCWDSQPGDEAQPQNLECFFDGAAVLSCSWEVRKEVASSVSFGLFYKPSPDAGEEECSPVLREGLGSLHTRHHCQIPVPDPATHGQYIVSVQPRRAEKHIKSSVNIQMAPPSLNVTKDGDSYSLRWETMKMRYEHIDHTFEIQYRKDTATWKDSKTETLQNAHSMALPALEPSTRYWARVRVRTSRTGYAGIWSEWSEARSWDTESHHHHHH
Protocol: as §1, §2, §3

shCD131 S41A = molecular target: T4, shCD131 S41A (human, UniProt P32927 17-438)
T4 construct: C-terminal 6xHis
T4 sequence: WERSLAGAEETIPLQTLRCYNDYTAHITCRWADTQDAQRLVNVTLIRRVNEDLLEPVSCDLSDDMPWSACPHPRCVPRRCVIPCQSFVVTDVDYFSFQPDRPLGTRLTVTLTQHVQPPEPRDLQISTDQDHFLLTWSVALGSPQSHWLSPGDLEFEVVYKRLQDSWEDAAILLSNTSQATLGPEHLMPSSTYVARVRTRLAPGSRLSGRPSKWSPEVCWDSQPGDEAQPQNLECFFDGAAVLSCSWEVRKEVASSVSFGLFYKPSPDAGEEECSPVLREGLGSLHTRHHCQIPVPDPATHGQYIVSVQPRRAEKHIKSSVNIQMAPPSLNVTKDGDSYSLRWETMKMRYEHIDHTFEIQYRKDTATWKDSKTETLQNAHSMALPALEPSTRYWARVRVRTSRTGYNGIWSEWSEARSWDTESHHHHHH
Protocol: as §1, §2, §3

Kd (shCD131 R364A): 119 nM | Kd (shCD131 H42A): 41 nM | Kd (shCD131 N422A): 54 nM | Kd (shCD131 S41A): 56 nM
B1: 9A2 Fab (Fab, V domains shown)
VH: EVQLLESGGGLVQPGGSLRLSCAASGFTFSHYHMLWVRQAPGKGLEWVSSIRSSGGFTYYADSVKGRFTISRDNSKNTLYLQMNSLRAEDTAVYYCARFYDSFFDIWGQGTMVTVSS
VL: DIQMTQSPSSVSASVGDRVTITCRASQGISSWLAWYQQKPGKAPKLLIYAASSLQSGVPSRFSGSGSGTDFTLTISSLQPEDFATYYCQQANSFPITFGQGTRLEIKR
notes: also called recombinant Fab of 9A2
